Assay results as given in the nanobody polyreactivity screen of Harvey et al. (2022).

Assay: yeast display, Sf9 membrane polyspecificity reagent, FACS + sequencing; frameworks hold sequencing errors
Method in brief: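 Nanobodies came from a synthetic yeast display library in Saccharomyces cerevisiae BJ5465, induced with galactose for 36–48 hours and stained for 1 hour at 4 °C with 10% biotinylated, detergent-solubilized Sf9 membrane reagent. Cells were enriched on streptavidin microbeads and then FACS-sorted, with low and high (top ~1%) gates set on anti-HA fluorescence for expression and streptavidin fluorescence for reagent binding. Each polyreactivity label reflects the gate a clone came from. Genes were amplified by colony PCR, sequenced by MiSeq 2 × 250 and filtered by CDR length.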

Row | Sequence | polyreactivity (PSR sort gate)
1 | QVQLVESGGGLVQAGGSLRLSCAASGSIFWGYAMGWYRQAPGKERELVAAISSSGGNTYYADSVKGRFTISRDNAKNTVYLQMNSLKPEDTAVYYCAATPEFYGGKITDVYSQYGYWGQGSQVTVSS | low polyreactivity
2 | QVQLVESGGGLVQAGGRLRLSCAASGFIFYDYAMGWYRQAPGKERELVAVITSGGSTYYADSVKGRFTISRDNAKNTVYLQMNSLKPEDTAVYYCNADWVFTWYDYPNDKYDYWGQGTQVTVSS | low polyreactivity
3 | QVQHVESGGGLVQAGGSHRLSSAASGSTFRGYVMGWYRQAPGKERELVAVITTSDGDTYYADSVKGRFTNSRDNAKNTVYLQMNSLKPEDTAVYYCNADLYSYYGDNYWGQGTQVTVSS | low polyreactivity
4 | QVQLVESGGGLVQAGGSLRLSCAASGSILPGNAMGWYRQAPGKEREFVAAISKSGGRTNYADSVKGRFTISRDNAKNTVYLQMNSLKPEDTAVYYCAARRSTGYGKSNLYNYWGQGTQVTVSS | high polyreactivity
5 | QVQLVESGGGLVQAGGSLRLICAASGRTFYYYAMGWYRQAPGKERELVAAISKDGGRTYYADSVKGRFTISRDNAKHTVYLQMKSLKPEDTAVYYCAARYSSSRGLSSEYWGQGTQVTVSS | high polyreactivity
6 | QVQLVESGGGLVQAGGSLRLSCAASGFTFYRYTMGWYRQAPGKERELVAAISSGDSTYYADSVKGRFTISRDNAKNTVYLQMNSLKPEDTAVYYCAARQYSRGAIVYYWGQGTQVTVSS | high polyreactivity
7 | QDQLVESGGGLVQAGGSLRLSCAASGFTFYSYAMGWYRQAPGKEREFVATITSSGGSTYYADSVKGRFTISRDTAKNTVYLQINSLNTEDTAVYYCAKDRYLYYRRRGQYDYWGQGTQVTVSS | high polyreactivity
8 | QVQLVESGGGLVQAGGSLRLSCAGSGGIFGSNAMGWYREAPGKERALVAAISWRGGSTYYADSVKGRFTISRDNAKNSVYLQMNSLKPEDTAGYYCAARYRWGYSTSYSYRFHYWGQGTQVTVSS | high polyreactivity
9 | QVQLVESGGGLVQAGGSLRLSCAASGFILRAYAMGWYRQAPGKERELVAAITSATSTNYADSVKGRFTISRDNAKNTVYLQMNSLKPEDTAVYYCAADGGGGEFSYDSWGQGTQVTVSS | low polyreactivity
10 | QVQLVESGGGLVQAGGRLRLSCAASGFTFDYNAMGWYIQAPGKEREFVASISVSGGSTYYADSVKGRFTISRDNAKNTVYLQMNSLKPEDTAVYYCAAELTGDGTLGYDFWGQGTQVTVSS | low polyreactivity
11 | QVQLVESGGGLVQAGGSLRLSCAASGLIFYSYAMGWYRQAPGKERELVAAISKRGGSTYYADSVKGRFTISRDNAKNTVYLQMNSLKPEDTAVYYCAAVIHGSSQYYGGTYGRYYWGQGTQVTVSS | high polyreactivity
12 | QVQLVESGGGLVQAGGSLRLSCAASGRIIYTNAMGWYRQAPGKERELVAAINRSGGITYYADSVKGRFTISRDNAKNTVYLQMNSLKPEDTAVYYCAKDYSWASYNHDYWGQGTQVTVSS | low polyreactivity
13 | QVQLVESGGGLFKAGGSLRLSCAASGFIFYFYNMAWYRQAPGKERELVAAISKSGTSTYYAASVKGRFTISRDNAKNTVYLQMNSLKPEDPAVYYCNKVRRANFDYWGQGTQVTVSS | high polyreactivity
14 | QVQLVESGGGLVQAGGSLRLSCAASGFTFAVYTMGWYRQAPGKERELVAAITGSGGRTYYADSVKGRFTISRDNAKNTVYLQMNSLKPEDTAVYYCNAVQRSSRQTFEYCGQGTQVTVSS | low polyreactivity
15 | QVQLVESGGGLVQAGGSIRLIWAASGSTVPSYTMGWYRQAPGKERELVAAISGSGGSTYYADSVKGRFTISRDNAKNTVYLQMNSLKPEDTAVYSCAADYRLQLSYAFGDDYWGQGPQVTVSS | low polyreactivity
16 | QVQLVETGGGLVQAGGSLRLSCAGSVSIFNRNAMGWYRQAPGKERELVAAISNSGARTYYADSVKGRFTISRDNAKNTVYLQMNSLKPEDTAVYYCTAVRRRSKLYNYWGQGTQVTVSS | high polyreactivity
17 | QVQLVESGGGLVQAGGSLRLSCAASGSTFGGNGMGWYRQAPGKEREFVATITWRSGSTYYADSVKGRFTISRDKAKNTVYLKMNILKPEDSAVYYCAKYTSSRRNTWYYYWGQGTEVTVSS | high polyreactivity
18 | QVQLVESGGGLVQAGGSLRLTCAASGNIFISYAMGWYRQAPGKEMELVAAISRSGGSTYYADSVKGRFTISRDNEKNSVYLLMNSLKPEDTAVYYCAAYIGQGRYGSWGQGTQVNVSS | high polyreactivity
19 | QVQLVESGGGLVQAGRSLLLICAASGSTFAYYAMGWYRQAPGKERELVAAINYRATRTYYADSVKGRFTISRDNAKNTVYLQMNSLKPDDTAVDYCIAEPAYYRSNRWPRFEYWGQGTQVTVSS | high polyreactivity
20 | QVQLVESGGGLVQAGGSLRLSCAASGSTFIRNAMGWYRQAPGKERELVAAINSGGNTYYADSVKGRFTISRDNAKNTVYLQMNSLKPEDTAVYYCAKAWGTYRSVYYRGYYWGQGTQVTVSS | high polyreactivity
21 | QVQLVESGGGLVHAGGSLRLSCAASGFIFGSYTMVWYRTAPGKERELVATITLSDGSTYYADSVNGRFTISRDNANNTVFLQMNSLKPEDTAVYYCNKDKVVVRYDYWGQGTQVTVSS | low polyreactivity
22 | QVQLVESGGGLFQAGGSLRLSCAASGGTFDWYTMGWYRQAPGKERELVADITSGGSTYYADSVKGRFTISRDNAKNTVYLQMNSLKPEDTALYYCNKRDKVTYSYDYWGQGTQVTVSS | high polyreactivity

Row | Sequence | polyreactivity (PSR sort gate)
23 | QVQLVESGGGLVQAGGSLRLSCAASGSTFRYNSMGWYRQAPGKDRELVAAISRIGGTTYADSVKGRFTISRDNAKNTVYLQMNSLNPEDTAVYYCARANWGYYGPEYGYWGQGTQVTVSS | high polyreactivity
24 | QVQLVESGGGLVQAGGSLRLSCAASGLTFDVYTMGWYRQAPGKERELVAGITSGGSTDYADSVKGRFTISRDNAKNTVYLQMNSLKPEDTAVYYCNKPFPYYPDGPNGYDYWGQGTQVTVSS | low polyreactivity
25 | QVQLVESGGGLVQAGGSLRLSCAASGRTFSWNAMGWYRQAPGKERELVAAINRSGGITFYADSVKGRFTISRDNAKNTVYLHMNSLKPEDTAVYYSAADRSFGHHYWYSGKRYDYWGQGTQVTVSS | low polyreactivity
26 | QVQLVESGGGLVQAGGSLRLSSAASGFTFQGYVMGWYRQAPGKERELVAAISWSGGSTYYADSVKGRFTISRDTAKNTVYLQMNSLKPEDTAVYYCAAVTRFYTKYYWGQGTQVTVSS | high polyreactivity
27 | QVQLVESGGGLVQAGGSLRLSCAASGSTFPPYVMGWYRQAPGKERELVAAITWSSGSTYYADSVKGRFTISRDNAKNTVYLQMNSLKPEDTAVYYCAAKWLGYGFDYWGQGTQVTVSS | low polyreactivity
28 | QVQLVESGGGLVQAGGSLRLSCAASGSIFSKYVMGWYRQAPGKERELVAAISWSGTRTYYADSVKGRFTISRDNAKNTVYLQMNSLKPEDTAVYYCAARRLYAGHQYDYWGQGTQVTVSS | high polyreactivity
29 | QVQLVESGAGLVQAGGSLRLSCAASGRNFGTYAMGWYTQAPGTERELVAGINGSGGSTYYADSVKGRFTISRDNAKNTVFLQMNSLKPEDTAVYYCAKYNWYRAWRYGYWGQGTQVTVSS | high polyreactivity
30 | QVQLVESGGGLVQAGGSLRLSCAASGSTFGLYAMGWYRQAPGKERELVADITWSGGSTYYADSVKGRFTISRDNAKNTVYLQMNSLKPEDTAVYYCAARYPWVYYDFDYWGQGTQVTVSS | low polyreactivity
31 | QVQLQESGAGLVQAGGSLRLTCAASGSIFLFYTMGWYRQAPVKEREFVAGITLGTTTYNADSVKGRFTISRDNVKNTVYLQMNSLKPEDTAVYYCAVAVGHYTEFWYWGQGTQVTMSS | high polyreactivity
32 | QVQLVESGGGLVQAGGSLRLICAASGLIFKFYAMGWYRQAPGKERELVASIRGSGDNTYYADSVKGRFTISRDNAKNTVYLQMNSLKPEDTAVYYCAADWLYDYGEYYYWGQGTQVTVSS | high polyreactivity
33 | QVQLVESGGGLVQAGGSLRLSCAASGRIFWFYTMGWNRQAPGKERELVARITTSGGSTYYADSVKGRFTISRDNAKNTVYLQMNSLKPEDTAVYYCAARPRDYHSFSLDYYYWGQGTQVTVSS | high polyreactivity
34 | QVQLVESGGGLVQAGGSLRLSCAASGSIFSVNTMGWYRQAPGKQRELVAAISESGDGTYYADSVKGRFTISRDNAKNTVYLQMNSLKPEDTAVYYCNADRQKGGGYYPHEFDYWGQGTQVTVSS | low polyreactivity
35 | QVQLVESGGGLVQAGGSLRLSCADTGLILVLNAMGCYRQAPGKERELVADITSGGSTYYADSVKGRFTISRDNAKNSVYLQMNSLKPEDTAVYYCATDQGGYYENDYWGQGTKVTVSS | low polyreactivity
36 | QVQLVESGGGLVQAGGSLRLSCAASGFTLEPNTMGWYRQAPGKERELVAGISWSGGSTYYADSVKGRFTISRDNAKNTVYLQMNSLKPEDTAVYYCNDDSGWFCYDYWGQGTQVTVSS | low polyreactivity
37 | QVQLVESGGGLVQAGGSLRLSCAASGLIFVWYALGWSRQAPGKERELVAAISWRGGTTYYADSVKGRFTISRDNAKNTVYLQMNSLKPEDTAVYYCNAEGSQVDYLRYVWYDMDYWGQGTQVTVSS | low polyreactivity
38 | QVQLEESGRGLVQAGGSLRLSCAASGRTFLQYAMGWYRQAPRKERELVAANTTSGGDTYYADSVKGRFTISRDNAKNTVYLQMNSLKPEDTAVYYCNADFRVYIPHVPYFVDFDYWGQGTQVTVSS | low polyreactivity
39 | QVQLVESGGGLVQAGGSLRLSCAASGRIFTGNVMGWYRQAPGKERELVAAITYRGGSTYYADSVKGRFTISRDNAKNTVYLQMNSLKPEDTAVYYCAAGYFLGHTYGGDYWGQGTQVTVSS | low polyreactivity
40 | QVQLVESGGGLVQAGGSLRLSCAASGRTLFGYAMGWYRQAPGKERELVAAITYGATSTYAHSVKGRFTISRDNAKNTVYLQMNSLKPEDTAVYYCNAYTPTDGFDYWGQGTQVTVSS | low polyreactivity
41 | QVQHEESGGGLVQAGGSLRLSCAASGLTFYPYAMGWYRQATGKESELVAGISASGGGTSYADSVKGRFTISRDNAKNTVYLQMNSLKPEDTAVYYCAATPTFFVWQGYNYWGQGTQVTVSS | low polyreactivity
42 | QVQLVESGGGLVQAGGSLRLSCAASGRILYKYAMGWYRQAPGKERELVAAISWRGTTTYYADSVKGRFTISRDNAKNTVYLQMNSLKPEDTAVYYGAIDRSYGYFSRPVSQYDYWGQGTQVTVSS | high polyreactivity
43 | QVQLVESGGGLVPAGGSLRLSCAASGRIFGYYAMGWYRQATGKERELLATIRWRGGSPYYADSVKGRFTISRDNAKNTVYLQMNSLKPEVTAVYYCAATRARRWSSPGQYGYWGQGTQVTVSS | high polyreactivity
